The numbers were not newly measured in paper PMC11866742, which cites them from elsewhere.

pKd: −log10 of the molar value.

This series addresses SIRPα (Homo sapiens) (UniProt P78324).
Sequence of UniProt P78324 (P78324 31-373): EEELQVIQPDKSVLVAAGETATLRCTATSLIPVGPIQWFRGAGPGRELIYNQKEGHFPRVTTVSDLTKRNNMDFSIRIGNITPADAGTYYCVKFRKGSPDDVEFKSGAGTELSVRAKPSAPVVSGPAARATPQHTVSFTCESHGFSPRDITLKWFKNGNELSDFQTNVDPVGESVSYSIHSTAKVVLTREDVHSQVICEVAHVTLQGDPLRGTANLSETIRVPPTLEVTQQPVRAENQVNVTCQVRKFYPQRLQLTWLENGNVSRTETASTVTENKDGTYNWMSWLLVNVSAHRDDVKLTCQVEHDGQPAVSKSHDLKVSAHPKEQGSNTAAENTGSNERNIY

One may read the pKd as the Kd on a negative log10 scale, so that one unit is a factor of ten. With CD47 (from UniProt Q08722), the pKd is 5.82.
